Data from the Human Domainome abundance scans (Beltran et al. 2025).

B1: Tumor protein 63, residues 545 to 610; numbered along this chain, Q9H3D4 (parent)
chain: TDCSIVSFLARLGCSSCLDYFTTQGLTTIYQIEHYSMDDLASLKIPEQFRHAIWKGILDHRQLHEF

Variants of: B1
Experiment: abundance fitness (aPCA) (normalised: wild type 0, dead -1); higher = more abundant; growth selection in yeast, the domain comes from the species named
Settings: Homo sapiens

Abundance fitness: each site, then its substitutions
G25: R -0.093, Q -0.116, L -0.582, H -0.099, A -0.118, C -0.143, I -1, V -0.866, F -0.549, T -0.401, M -0.362, Y -0.349, S -0.062, E -0.067, W -0.733, P -0.885, N -0.048
Y30: N -0.046, S 0.038, P 0.007, R 0.008, M -0.025, C 0.005, V -0.034, I -0.049, F -0.112, Q 0.029, K 0.001, E -0.016, W -0.06, H 0.057, D 0.009, T -0.001, G 0, L -0.044
C17: S -0.164, V -0.077, Q -0.147, P -0.784, Y -0.323, M -0.025, K -0.619, I -0.124, T -0.087, L -0.085, R -0.838, N -0.359, F -0.299, G -0.584, H -0.525, D -1.05, E -0.377
G13: T -0.188, S -0.076, V -0.804, W -0.829, Y -0.298
Y20: E -0.139, L -0.044, V -0.109, A -0.028, W -0.097, D -0.175, N -0.022, C -0.08, Q -0.09, K -0.02, R -0.043, G -0.268, M -0.02, I -0.002, P -0.387
Q31: S -0.093, V -0.841, E -0.03, Y -0.721, K -0.296, A -0.108, I -0.86, F -0.695, W -0.812, D -0.019, C -0.159, N -0.133, G -0.274, H -0.047, R -0.427, P -0.737, L -0.431
E33: C -0.05, A -0.042, F -0.06, D -0.026
S15: P -0.086, N -0.034, L -0.061, T 0, R -0.052, C -0.057, K -0.037, H -0.031, M -0.076, A -0.046, G -0.059, Y -0.096, I -0.042, Q 0.008, F -0.157, E -0.067, W -0.179, V -0.077, D -0.064
L18: F -0.16, R -0.072, M -0.008, I -0.036, W -0.203, G -0.08, V -0.013, S -0.018, H -0.126, Y -0.047, C 0.007, D -0.09, P -0.551, Q -0.002, E -0.014, N -0.047, T -0.008, K 0.061, A -0.008
T28: N -0.087, P -0.82, G -0.069, K -0.028, V -0.1, A -0.065, F -0.063, L -0.084, Y -0.056, H -0.056, R -0.051, Q -0.012, M -0.038, D -0.021, I -0.192, C -0.211, W -0.04
D19: L -0.089, I -0.067, G -0.032, V -0.081, N 0.004, T -0.002, K -0.024, C -0.079, P 0.004, A -0.05, W -0.058, F -0.09, M -0.086, Q -0.087, R -0.019, E -0.015, Y -0.103
Q24: E -0.039, N -0.089, A -0.025, R -0.023, G -0.081, H -0.015, P -0.21, T -0.062, Y -0.121, F -0.12, W -0.138, D -0.152, M -0.067, V -0.04, L -0.081, S -0.037, K -0.018, C -0.048, I -0.073
T27: H -0.005, D -0.057, M -0.107, F -0.063, G -0.123, E -0.04, C -0.133, V -0.044, S -0.022, W -0.135, Y -0.079, K -0.032, A -0.105, N -0.024, P -0.82, I -0.075, L -0.084, Q -0.049, R -0.053
T23: V -0.044, A -0.023, G -0.004, N 0.002, R -0.02, M -0.01, H 0.076, I -0.072, S -0.037, C -0.037, E -0.02, L -0.03, Q 0, Y -0.096, P -0.093, W -0.105, D -0.027, K -0.008
T22: Q -0.026, M -0.098, H -0.04, V -0.036, F -0.102, K -0.017, A -0.023, L -0.021, I -0.027, D -0.039, P -0.78, Y -0.177, C -0.166, W -0.096, G -0.1, N -0.066, E -0.014
F21: G -0.986, K -1.15, S -0.773, I -0.737, Y -0.85, E -0.983, T -1.13, D -1.03, N -0.962, V -1, C -1.01, Q -0.965, W -1.04, R -0.964, A -1.02, L -0.56, H -0.975
I29: L -0.027, S -0.245, Q -0.355, K -0.366, M 0.042, A -0.175, T -0.046, N -0.719, V -0.019, E -0.366, Y -0.049, G -0.701, D -0.42, W -0.052, H -0.432, R -0.285, F 0.063, P -0.309
C14: H -0.12, K -0.125, N -0.34, I -0.068, T -0.143, V -0.027, R -0.222, F -0.111, Y -0.076, E -0.42, M -0.014, L 0.023, W -0.61, S -0.128, P -0.889
S16: F -0.106, C 0.016, H -0.059, G -0.023, W -0.165, Y -0.156, I -0.089, P -0.006, K -0.12, T -0.073, E -0.033, A -0.037, D -0.012, R -0.092
L26: C -0.174, I -0.014, D -0.552, T -0.272, Q -0.345, P -0.692, A -0.271, M -0.112, F -0.106, V -0.054, Y -0.149, W -0.435, H -0.225, R -0.436, G -0.935, N -0.414
I32: E -0.925, H -0.876, C -0.249, N -0.841, W -0.898, T -0.55, G -0.832, Q -0.931, A -0.672, K -0.9, S -1.01, M -0.169, P -0.953, L -0.062, R -1.01, F -0.209
